Experiment: Activity measurement of betaine-homocysteine methyltransferase (methionine produced, absorbance at 520 nm)
Assay type: biochemical
Conditions: 37° C., 1 h, pH 7.5; 1 U = 1 μmole of methionine per 1 h
Description: • reagent A 50 mM potassium phosphate buffer (pH 7.5) • reagent B 100 mM DL-homocysteine solution (dissolved in reagent A) • reagent C 100 mM betaine (dissolved in reagent A) • reagent D 0.2% aqueous pentacyanoanmineiron(III) sodium solution • reagent E acetic acid • reagent F 10% aqueous sodium nitrite solution <Measurement Conditions>
After the completion of the reaction, reagent D (5 ml) is added and the mixture is stirred. After standing for 1 min, 1 ml each of reagent E and reagent F were added in this order and the mixture is stirred. After standing for 30 min at room temperature, absorbance at 520 nm is measured. Using L-methionine dissolved in reagent A instead of the enzyme solution, absorbance is measured in the same manner and a standard curve is drawn, from which the amount of methionine produced by the enzymatic reaction is measured.

B1: betaine-homocysteine methyltransferase: Human-derived enzyme (EC 2.1.1.5) expressed from human liver cDNA in E. coli BL21(DE3) and purified (protein, UniProt Q93088 1-406, looked up)
Betaine--homocysteine …: MPPVGGKKAKKGILERLNAGEIVIGDGGFVFALEKRGYVKAGPWTPEAAVEHPEAVRQLHREFLRAGSNVMQTFTFYASEDKLENRGNYVLEKISGQEVNEAACDIARQVADEGDALVAGGVSQTPSYLSCKSETEVKKVFLQQLEVFMKKNVDFLIAEYFEHVEEAVWAVETLIASGKPVAATMCIGPEGDLHGVPPGECAVRLVKAGASIIGVNCHFDPTISLKTVKLMKEGLEAARLKAHLMSQPLAYHTPDCNKQGFIDLPEFPFGLEPRVATRWDIQKYAREAYNLGVRYIGGCCGFEPYHIRAIAEELAPERGFLPPASEKHGSWGSGLDMHTKPWVRARARKEYWENLRIASGRPYNPSMSKPDGWGVTKGTAELMQQKEATTEQQLKELFEKQKFKSQ
specific activity of purified enzyme standard product: about 2.1 U/mg protein

From patent publication US6867012B2, “Determination method of biological component and reagent kit used therefor” (Toyo Boseki Kabushiki Kaisha, priority 2000, dated 2005)
